# Measurements published in US20240075139A1.
# B1: 5T0465 (antibody, V domains shown)
# VH: QVQLVQSGAEVREPGASVRISCKASGYTFTSASIHWVRQAPGQGLEWMGIIDPVVGKTRSERKFNGRLIMTRDTPTSTVYMELNSLRSDDTAMYYCARSGYYPRGMDVWGQGTTVTVSS
# VL: SYELTQPPSVSVSPGQTASITCSGDKLGDEYVSWYQQKPGQSPVLVISRDTRRSSGIPERFSGSNSGNTATLTISGTQAMDEADYYCQAWDSSTAVVFGGGTKLTVL
# B2: 1T0455 (antibody, V domains shown)
# VH: EVQLVESGGGLVKPGESLRLSCAVSGLTFSNAWMNWVRQAPGKGLEWVGRIKSKSDGGAADYAAPVNARFTISRDDSKKTLYLQMNSLKTEDTGFYYCTTLYHSGQGTLVTVSS
# VL: QSVLTQPPSVSGAPGQRVTISCTGSSSNIGAGYDVHWYQQLPGTAPKFVIYGNNNRPSGVPDRFSGSKSGTSASLAITGLQVEDEGDYYCQSYDSRLSDHVVFGGGTKLTVL
# B3: 4T0764 (antibody, V domains shown)
# VH: QVQLQESGPGLVEPSETLSLTCTVSGASISSLFWSWIRQPPGKGLEWIGYIHSDGSTNYNPFLKSRVTISIDTSQNQFSLRLTSVTAADTAVYFCARGLLGSQDSWGQGTLVTVSS
# VL: QSALTQPASVSGSPGQSITISCTGTSSDVGGYNYVSWYQQYPGKAPKLVIYEVTNRPSGVSNRFSGSKSGNTASLTISGLRAEDEADYHCSSYRTRNTHVIFGGGTKLTVL
# B4: 3T0611 (antibody, V domains shown)
# VH: EVQLVESGGNLVQPGGSLRLSCAASGFTFRSYSMNWVRQAPGKGLEWVSYISSSASIIHYAESVQGRFTISRDNAKNSLFLQMNSLRAEDTAVYYCAGILDDYRDYGYDYWGQGTLVTVSS
# VL: SYELTQPPSVSVSPGQTARITCSGDALPKQYAYWYQQRPGQAPVLVIYKDIERPSGIPERYSGSSSGAIVTLTISGAQAEDEADYYCQSSDNNGSYRVMFGGGTKLTVL
# B5: 3T0202 (antibody, V domains shown)
# VH: EVQLVESGGGLVQPGGSLRLSCAASGFKFRSYDMHWVRQRSGEGLEWVAAIGTAADTYYLGSVRGRFTISRENAKNSLYLQMDSLGAGDTAVYYCARAAFGAVFFDYWGQGTLVTVSS
# VL: EIVLTQSPGTLSLSSGERATLSCRASQSISSSYLVWYQQKLGQAPRLLIYGASRRATGIPDRFSGSGSGTDFTLTISRLEPEDFAVYYCQQYGNSPITFGQGTRLEIK
# B6: 3T0650 (antibody, V domains shown)
# VH: EVQLVQSGGGLVKPGGSLRLSCAASGFTFSNAWMNWVRQAPGKGLEWIGRVKSQTDRGTKDYAAPVKGRFSISRDDSKKMLYLQMNSLKIEDTGVYYCVATPHSWSVAWGQGTLVTVSS
# VL: QSVLTQPPSVSGAPGQRVTISCTGSSSNIGAGYDVQWYQQFPGTAPKLLIYGNINRPSGVPDRFSGSKSGSSASLAITRLQAEDEADYYCQSYDSSLRDQWVFGGGTKLTVL
# B7: 4T0444 (antibody, V domains shown)
# VH: EVQLVVSGGGLVQPGGSLRLSCAASGFTLKSYDIHWVRQRPGEGLEWVAAIGAAGDTYFSGSVKGRFTISRENARNSLYLQMNSLGAGDTAIYYCARARFGDLALDYWGQGILVTVSS
# VL: EIVLTQSPGTLSLSPGERATLSCRSSQSVSSNSLAWYQQKPGQAPRLLIYGASSRAAGIPDRFSGSGSGTDFTLTISRLQPEDFAVFFCHQYSSSPLTFGGGTKVEIK
# B8: 3T0673 (antibody, V domains shown)
# VH: EVQLVESGGGRVKPGGSLRVSCAVSGITFTNAWMTWVRQAPGKGLEWLGRIKSRSDGGQSDLIAPVKGRFTISRDDSKNILYLQMNNLKTEDTGLYFCTTYYYDNGGSYSNPWGLGTLVTVSS
# VL: QSVLTQPPSVSGAPGQRVTISCTGSYSNIGAGYDVLWYQQLPGTAPKLLIYGNNKRPSGVPDRFSGSKSGTSASLAITGLQAEDEADYYCQSYDSRLRDFGIFGGGTKLTVL
# B9: 4T0452 (antibody, V domains shown)
# VH: EVQLVESGGGLVKPGGSLRISCAASGFSFSNAWMNWVRQAPGKGLEWVGRIKSVSDGGPIHYAAPVKGRFTISRDDSKKMLYLQMNSLKVDDTAVYYCATEPRGYDWGWGQGTLVTVSS
# VL: QSVLTQPPSVSGAPGQRVTISCTGSYSNIGAGYDVYWYQQFPGTAPKLLIYGNTNRPSGVPDRFSGSRSGTSASLAITGLQAEDEAHYYCQSYDSRLRDNWVLGGGTKLTVL
# B10: 5T0278 (antibody, V domains shown)
# VH: EVQLVESGGGLVKPGGSLRVSCAASGFPFTDAWMSWVRQAPGKGLEWVGRIKSNSDGGIPDYAAPVKGRFTISRDDSKRTLYLQMNSLKTEDTGYYYCYTLRFFGPGNSWGQGTLVTVSS
# VL: QSVLTQPPSVSGAPGQRITISCTGSYSNIGAGYDVSWHQQLPGKAPKLLIYGNNNRPSGVPDRFSGSKSGTSASLTITGLQAEDEADYYCQSYDARLRDQVVFGGGTKLTVL
# B11: 3T0338 (antibody, V domains shown)
# VH: EVQLVESGGALVKPGGSLRLSCAASGFSFKTAWMNWVRQAPGKGLEWVGRIKSRADGGTSDYSASVKGRFTFSRDDSKNTLYLQMTSLKTEDTGMYYCTTLNLGGGFPGEWRSVWGQGTTVTVSS
# VL: QSVLTQPPSVSGAPGQRVTISCTGSYSNIGSGYDVLWYQQLPGAAPKLLIYGNNNRPSGVPDRFSGSKSGTSASLAITELQAEDEGDYYCQSYDSRLRDSWVFGGGTRLTVL
# B12: 5T0451 (antibody, V domains shown)
# VH: EVQLVESGGGLVKPGGSLRLSCAASGFTFTNAWMNWVRQAPGKGLEWIGRIKSKGDGGTADHAAPVRGRFIISRDDSKQMLYLQMTGLKSDDTAVYYCTRGPYDNFSGWRDYWGQGTLVTVSS
# VL: QSVLTQPPSVSGAPGQRVTISCTGSGSNIGAGYDVQWYQQHPGTAPKVLIYGNNKRPSGVPDRFSGSKSGTSASLAITGLQAEDEAHYYCQSYDARLRDSWVFGGGTQLTVL
# B13: 5T0209 (antibody, V domains shown)
# VH: EVQLVDSGGGLVKPGGSLRLSCAASGFTFSKAWMSWVRQAPGKGLEWVGRIKSRTDGGTTDYAAPVRGRFTISRDDSKNTLFLQMNSLKPEDTAIYYCATDYYESRGYWGQGTLVTVSS
# VL: QSVLTQPPSVSGAPGQRVTISCTGSSSNIGAGYDVNWYQQIPGTAPKLLIYGNNKRPSGVPDRFSGSKSGTSVSLAITGLQAEDEADYYCQSYDSRLSDHWVFGGGTKLTVL
# B14: 4T0784 (antibody, V domains shown)
# VH: QVQLVESGGGVVQPGRSLRLSCAASGFTFSTYGVHWVRQAPGKGLEWVGVIWYDGSKKYYADSVKGRFTISRDNSKNTLYLQMNSLRAEDAAVYRCVRGGDLLLLPDSIDYYGMDVWGQGTLVTVSS
# VL: KDHDPQAPVSLSASVGDRVTITCRASQGIRNDLGWYQQKPGKAPKRLIYAASSLQSGVPSRFSGSGSGTEFTLTISSLQPEDFATYYCLQHNTYPFSFGPGTKVDIK
# B15: 4T0243 (antibody, V domains shown)
# VH: QVQLQESGPGLVKPSETLSLTCTVSGGSLSTYYWNWIRQPPGKGLEWIGYIYYSSLPKYSPTLKSRITISVDTSKNQFSLKLSSVTAADTAVYYCARAPRGYSSGKYNYYGLDVWSQGTTVTVSS
# VL: SYELTQPPSVSVSPGHTATITCSGDALSKQFAYWYQQKPGQAPVLVISKDTERPSGIPGRFSGSSSGPTATLTISGVQAEDEADYYCQSADSSGGYYVFGSGTRVTVL
# B16: 3T0553 (antibody, V domains shown)
# VH: QVQLVESGGGVVQPGRSLRLSCAASGFTFTTCAMHWVRQAPGKGLEWVSVMWYDGSREYYADSVKGRFTISRDNSKNTLYLEMQSLRAEDTAVYYCARGGDLLVEVDSTDYYGLDVWGQGTTVTVSS
# VL: DIQMTQSPSAMSASVGDRVTITCRASQGISHSLAWFQQKPGKVPKRLIYSASTLQSGVPSRFSGSGSGTEFTLTISSLQPEDFATYYCLQHNRYPWTFGQGTKVEIK
# B17: 3T0478 (antibody, V domains shown)
# VH: VQLLQESGPGLVKPSETLSLTCTVSGGSISSYYWNWIRQSPGKGLEWMGYIYYTGSTNYNPSLKSRVTISVDLSKNQFSLKLRSVTAADTAVYYCARDKRYYDSSGYSHFDYWGQGILVTVSS
# VL: QSVLTQPPSASGTPGQRVTIFCSGSSFNIGSNYVYWYQQLPGTAPKLLIYRNNERPSGVPDRFSGSKSGTSASLDISGLRSEDEADYSCAAWDGSLSGPVFGGGTKLTVL
# B18: 3T0245 (antibody, V domains shown)
# VH: EVQLVESGGDLVKPGGSLRLSCEASGFTFTNAWMNWVRQSPGKGLEWIGRVKSKSDGGAADYAAPVKGRFTISRDDSKNSVFLQMRSLKPEDTGVYYCATRVHYNGMDVWGRGTTVTVSS
# VL: QSVLTQPPSVSGAPGQRVTISCAGSGSNIGAGYDVHWYQQLPGTAPKLLIYANHNRPSGVPDRFSGSKSGSSASLAITGLQAEDEADYYCQSYDSSLRDACVFGGGTKLTV
# B19: 1T0227 (antibody, V domains shown)
# VH: EVQLVESGGGLVKPGGSLRLSCAASGFTFRNAWMNWVRQAPGKGLEWVGRIKSRADGGPTDYAAPVKGRFTISRDDSKNTLYLQMNSLKSEDTAVYYCTTHVPDYNSAYYWVYWGQGTLVTVSS
# VL: QSVLTQPPSVSGAPGQRVTISCTGSSSNIGAGYDVYWYQQLPGTAPKLIIYGNNNRPSGVPDRFSASKSGPSASLAITGLQAEDEADYYCQSYDIRLSDNYVFGTGTKVTVL
# B20: 3T0253 (antibody)
# heavy: EVQLVESGGGLVKPGRSLRISCAASGITFNKAWMNWVRLAPGKGLEWVGRIKSNGDGGKRDYAAPVTGRFTISRDDSKNTLYLQMNSLKTEDTAVYFRTTRHHRGMDVWGQGTTVTVSS
# light: QSVLTQPPSVSGAPGQRVTISCTGSSSNIGAGYDVHWYQHLPGAAPKLLIYGDGSRPSGVPDRFSASKSGTSASLAITGLQAEDEADYYCQSYDSSLSDAVVFGGGTKLTVL
# B21: 3T0331 (antibody, V domains shown)
# VH: EVQLLESGGGLVQPGGSLRLSCEASGFPLRDYAMSWVRQAPGRGLQWVSTIGGNDNAANYADSVKGRFTVSRDNSKSTIYLQMNSLRAEDTALYFCAKSVRLSRPSPFDLWGQGSLVTVSS
# VL: EIVLTQSPATLSLSPGERATLSCRASQSVSTYLAWYQHQPGQAPRLLIYEASNRATGIPARFSGSGSGTEFTLTISSLEPEDVAVYYCQQRASWPLTFGGGTKVEIK
# Target: EBOV Mayinga (GenBank: NC_002549) (Zaire Ebolavirus (EBOV Mayinga)) (UniProt Q05320)
# Chain of UniProt Q05320 (Q05320 33-676 limits assumed): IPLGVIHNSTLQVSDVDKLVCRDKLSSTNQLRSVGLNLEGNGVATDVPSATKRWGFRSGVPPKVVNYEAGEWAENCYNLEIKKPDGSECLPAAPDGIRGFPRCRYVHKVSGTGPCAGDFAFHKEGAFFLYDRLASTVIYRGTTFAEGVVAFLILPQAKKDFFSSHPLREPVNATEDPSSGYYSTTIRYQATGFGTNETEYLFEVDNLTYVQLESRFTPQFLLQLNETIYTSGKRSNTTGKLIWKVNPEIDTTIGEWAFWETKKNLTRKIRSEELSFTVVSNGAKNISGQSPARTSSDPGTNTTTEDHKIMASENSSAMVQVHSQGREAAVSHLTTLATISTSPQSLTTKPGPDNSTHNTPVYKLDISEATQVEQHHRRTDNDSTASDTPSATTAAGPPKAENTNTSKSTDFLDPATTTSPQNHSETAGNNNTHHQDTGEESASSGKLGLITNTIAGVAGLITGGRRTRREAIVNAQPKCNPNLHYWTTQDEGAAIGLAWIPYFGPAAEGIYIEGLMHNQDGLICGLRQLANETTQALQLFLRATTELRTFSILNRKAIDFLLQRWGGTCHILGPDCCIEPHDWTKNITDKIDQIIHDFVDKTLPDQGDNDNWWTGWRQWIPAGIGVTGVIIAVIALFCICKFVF
# Assay: cell-based or functional assay
row,Binder,"neutralization concentration (GMC, CPE reduction on Vero C1008 cells) [µg/mL]"
1,B1,0.66
2,B2,1.77
3,B3,0.88
4,B4,0.78
5,B5,0.53
6,B6,0.74
7,B7,1.2
8,B8,0.53
9,B9,0.88
10,B10,0.63
11,B11,1.06
12,B12,1.05
13,B13,1.77
14,B14,1.86
15,B15,0.011
16,B16,1.31
17,B17,0.78
18,B18,0.63
19,B19,1.86
20,B20,1.31
21,B21,0.011
